The values below come from patent US7981997B2, “Growth factor which acts through ErbB-4 RTK” (Yeda Research And Development Co., priority 2000, dated 2011).

Assay [1] concerns Chinese Hamster Ovary (CHO) cell line. Put plainly: Binding to untransfected CHO cells (low ErbB-2, no other ErbB). The note with it: cells express low amounts of ErbB-2, no other ErbB receptor. Here is the method:
To test the prediction that NRG-4 can recognize a surface-expressed ErbB-4, but no other membrane-bound ErbB protein, a Chinese Hamster Ovary (CHO) cell line was employed. […] CHO cells were transfected with plasmid vectors directing expression of ErbB-4, or co-transfected with an ErbB-4 plasmid together with vectors expressing one of the three other ErbB proteins. Two days later, cells were incubated with ^125I-NRG-4, or with a radiolabeled NRG-1 as control, and subsequently the formed ligand-receptor complexes were stabilized by using a covalent crosslinking reagent. Immunoprecipitation of the expressed ErbB proteins allowed analysis of the covalently held complexes. […] Nevertheless, both monomers and dimers of ErbB-4 were formed by the two ligands (detection of NRG-4-containing dimers required longer film exposures).

The target of assay [2] is T1, ErbB-4 co-expressed with ErbB-1 (Homo sapiens, UniProt Q15303).
T1 construct: expressed in transfected cells; host or cells: CHO (Chinese Hamster Ovary) cells, transient co-transfection
Put plainly: Covalent crosslinking to CHO cells co-transfected with ErbB-4 and ErbB-1. The assay is classed as binding. As to the method:
(§1) CHO cells were transfected with vectors directing expression of the indicated ErbB proteins or their combinations. Two days later cell monolayers were incubated with either ^125I-NRG-1β or ^125I-NRG-4 (EGF-like domains, each at 100 ng/ml). Following 2 hours at 4° C., the covalent crosslinking reagent bis(sulfosuccinimdyl)-suberate (BS^3) was added (1 mM final concentration) and cell extracts prepared after an additional 45 minutes of incubation. The indicated ErbB proteins were then immunoprecipitated with mouse monoclonal antibodies, and the complexes resolved by gel electrophoresis and autoradiography. Arrows mark the locations of monomeric (M) and dimeric (D) receptor complexes.
(§2) Growth factors were labeled with Iodogen (Pierce) as described (Karunagaran et al., 1995). Chemical crosslinking to Chinese Hamster Ovary (CHO) cells engineered to express different ErbB combinations have been performed essentially as described (Tzahar et al., 1996). Briefly, radiolabeled ligands (at 100 ng/ml) were incubated for 2 hours with cell monolayers at 4 C. […] Non-specific binding was determined in the presence of a 100-fold molar excess of the unlabeled ligani. Cells were then washed, lysed in a solution containing 0.1 M NaOH and 0.1% SDS, and radioactivity determined by use of a gamma counter. […]

In the next assay the target is T2, surface-expressed ErbB-4 (Homo sapiens, UniProt Q15303).
T2 construct: expressed in transfected cells; host or cells: CHO (Chinese Hamster Ovary) cells
Put plainly: Covalent crosslinking to CHO cells transfected with ErbB-4. The conditions noted are these: expression of ErbB-4 alone. The assay is classed as binding. As to the method: as §1, §2

Assay [3] concerns D24 cells (32D co-expressing ErbB-4 and ErbB-2). The assay is described as follows: 32D cell proliferation, 24-hour dose-response MTT assay. It counts as cell-based. Here is the method:
(§3) The indicated derivative lines of 32D cells were tested for cell proliferation using the [3-(4,5-dimethylthiazol-2-yl)-2,5-diphenyl]tetrazolium bromide (MTT) assay. […] The MT assay was performed 24 hours later. Results are presented as percent induction over the control untreated cells, and are the mean±S.D. of 4 determinations. Each experiment was repeated at least twice with similar findings.
(§4) The establishment of a series of interleukin 3 (IL-3)-dependent 32D myeloid cells expressing all combinations of ErbB proteins has been described (Alimandi et al., 1997; Pinkas-Kramarski et al., 1996; Shelly et al., 1998). Cells were maintained in RPMI medium with 10% fetal bovine serum (FBS) and dilute IL3-containing conditioned medium. Prior to proliferation assays, cells were washed three times in RPMI/FBS and plated (5×10^5 cells/ml; 0.1 ml/well) into 96-well flat-bottomed plates with the indicated liconcentrations or with IL-3 (1:1000 dilution of conditioned medium). Cell survival was determined 24 hours later, or after the indicated time intervals, by MTT assay, as previously described (Mosman, 1983). MTT (0.05 mg/ml) was incubated with the analyzed cells for 2 hours at 37 C. Living cells can transform the tetrazolium ring into dark blue formazan crystals, that can be quantified by reading the optical density at 540-630 nm after lysis of the cells with acidic isopropanol.
(§5) To test the prediction that the novel transcript encodes an ErbB-specific ligand, the corresponding full-length EGF-like domain (residues 4-50, FIG. 1a, SEQ ID NO:2) was synthesized, denatured and refolded to allow proper disulfide bridging. This method has been used before to synthesize functionally active derivatives of other EGF-like growth factors (Barbacci et al., 1995; Lin et. al., 1988; Shelly et al., 1998). A series of derivatives of the 32D cell line engineered to express different ErbB receptors or their combinations has been previously described (Pinkas-Kramarski et al., 1996; Shelly et al., 1998). The myeloid 32D parental cells require cytokine stimulation, such as interleukin 3 (IL3) for their growth, and were chosen because they lack endogenous ErbB expression.

In assay [4] the test system is D12 cells (32D co-expressing ErbB-1 and ErbB-2). The description is as above. It counts as cell-based. The conditions noted are these: 24-hour dose-response. Here is the method:
as §3, §4, §5

In assay [5] the test system is D2 cells (32D expressing ErbB-2). Described as above. The assay is classed as cell-based. The note with it: 24-hour dose-response, without IL-3. Here is the method: as §3, §4, §5
Assay [6] concerns D1 cells (32D expressing ErbB-1). The description is as above. The assay is classed as cell-based. The conditions noted are these: 24-hour dose-response, without IL-3. Here is the method:
as §3, §4, §5

Assay [7] relates to D4 cells (32D expressing ErbB-4). The assay is described as above. The assay is classed as cell-based. The conditions noted are these: 24-hour dose-response, in comparison to NRG-1β control. As to the method: as §3, §4, §5
Assay [8] concerns D3 cells (32D expressing ErbB-3). The assay is described as above. The assay is classed as cell-based. The conditions noted are these: 24-hour dose-response. Here is the method:
as §3, §4, §5

The test system of a further assay is D13 cells. The assay is described as above. The assay is classed as cell-based. The conditions noted are these: 24-hour dose-response. Here is the method: as §3, §4, §5
The test system of another assay is D23 cells. The description is as above. The assay is classed as cell-based. The note with it: 24-hour dose-response. As to the method: as §3, §4, §5

T2 sequence (Q15303 26-1308, species assumed): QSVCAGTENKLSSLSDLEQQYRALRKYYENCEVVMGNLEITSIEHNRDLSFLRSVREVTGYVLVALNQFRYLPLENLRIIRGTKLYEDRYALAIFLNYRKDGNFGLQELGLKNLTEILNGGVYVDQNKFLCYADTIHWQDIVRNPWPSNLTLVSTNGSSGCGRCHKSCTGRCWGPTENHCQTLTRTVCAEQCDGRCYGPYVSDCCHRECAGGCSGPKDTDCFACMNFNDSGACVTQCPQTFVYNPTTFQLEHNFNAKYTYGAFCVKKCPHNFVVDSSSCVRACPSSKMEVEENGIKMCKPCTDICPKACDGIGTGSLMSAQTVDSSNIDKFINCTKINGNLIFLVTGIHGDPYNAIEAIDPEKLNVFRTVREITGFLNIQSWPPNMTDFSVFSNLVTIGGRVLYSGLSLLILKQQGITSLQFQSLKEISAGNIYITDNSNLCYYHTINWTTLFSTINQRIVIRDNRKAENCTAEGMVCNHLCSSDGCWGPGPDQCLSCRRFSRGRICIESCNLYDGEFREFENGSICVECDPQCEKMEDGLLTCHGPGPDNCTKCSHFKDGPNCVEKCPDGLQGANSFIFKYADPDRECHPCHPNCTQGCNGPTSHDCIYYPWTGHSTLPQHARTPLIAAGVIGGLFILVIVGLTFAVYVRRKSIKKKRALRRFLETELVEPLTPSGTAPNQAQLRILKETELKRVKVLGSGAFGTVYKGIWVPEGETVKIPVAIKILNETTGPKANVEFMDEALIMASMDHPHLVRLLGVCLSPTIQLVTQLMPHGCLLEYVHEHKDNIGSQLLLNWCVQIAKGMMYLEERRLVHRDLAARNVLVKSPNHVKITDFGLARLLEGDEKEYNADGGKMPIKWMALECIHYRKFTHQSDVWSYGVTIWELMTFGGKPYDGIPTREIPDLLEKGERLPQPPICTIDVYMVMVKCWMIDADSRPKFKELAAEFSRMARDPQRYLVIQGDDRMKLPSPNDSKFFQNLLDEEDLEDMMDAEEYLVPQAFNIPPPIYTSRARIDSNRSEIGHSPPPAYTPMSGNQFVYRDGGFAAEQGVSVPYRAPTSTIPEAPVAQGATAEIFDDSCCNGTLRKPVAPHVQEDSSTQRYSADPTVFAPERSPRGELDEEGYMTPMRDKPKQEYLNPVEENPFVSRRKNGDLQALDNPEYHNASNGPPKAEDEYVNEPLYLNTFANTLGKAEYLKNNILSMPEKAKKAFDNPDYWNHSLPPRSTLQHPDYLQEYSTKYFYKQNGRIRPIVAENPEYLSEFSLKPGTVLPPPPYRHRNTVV

B1: NRG-4: synthetic refolded mouse EGF-like domain of NRG-4 (residues 4 to 50, SEQ ID NO:2) (peptide, listed as Mus musculus)
chain: MPTDHEQPCGPRHRSFCLNGGICYVIPTIPSPFCRCIENYTGARCEEVFLPSSSIPSESNLSAAFVVLAVLLTLTIAALCFLCRKGHLQRASSVQCEISLVETNNTRTRHSHREH
For the molecule B1, in [1], the “binding to untransfected CHO cells” value is “failed to bind”. In addition, in [2] (CHO cells, ErbB-4 + ErbB-1), the “effect of ErbB-1 co-expression on the radioactive signal” value is “did not significantly affect the radioactive signals”. In addition, in [2] (precipitation with anti-ErbB-1 antibodies), the “heterodimers of ErbB-4 with ErbB-1” value was “existence of NRG-4-promoted heterodimers”. Further, in the assay with surface-expressed ErbB-4, the “covalent crosslinking signal compared with radioactive NRG-1” value is listed as “weaker than that observed with a radioactive NRG-1”. Also, the “complex formation with ErbB-4 on CHO cells” value with surface-expressed ErbB-4 (125I-ligand 100 ng/ml) is reported as “ability to form complexes”. The “mitogenic response of D24 cells” value in assay [3] (24-hour dose-response, MTT) is recorded as “responded mitogenically”. Moreover, the “mitogenic potency compared with NRG-1 in D24 cells” value in assay [3] (cells co-overexpressing ErbB-2 and ErbB-4) is given as “almost equipotent”. Also, in assay [4], the “mitogenic response of D12 cells” value is “D24 cells) was the only line that responded mitogenically”. In [5], the “mitogenic response of D2 cells” value was “did not respond”. The “mitogenic response of D1 cells” value in [6] is “did not respond”. In [7], the “mitogenic response of D4 cells” value is “modest dose-dependent mitogenic response”. For the same molecule, the “mitogenic response of D3 cells” value in [8] is “did not respond”. Further, in the assay on D13 cells, the “mitogenic response of D13 cells” value was “D24 cells) was the only line that responded mitogenically”. For the same molecule, in the assay on D23 cells, the “mitogenic response of D23 cells” value is recorded as “D24 cells) was the only line that responded mitogenically”.
